Test results from patent US20250152742A1, “COMPOSITIONS AND METHODS FOR NEUROLOGICAL DISEASES” (Trames Bio, Inc., priority 2022, published 2025).

Tested on: engineered chimeric receptor SEQ ID NO: 33 and its mutants (human α7-nAChR ligand binding domain / human GlyRα1 ion pore domain) in Lenti-X 293T cells
Assay: YFP fluorescence quenching anion reporter plate reader assay (percent quench, EC50)
Format: cell-based
Settings: for YFP fluorescence quenching using CNL001 (percent quench): receptor named in row; for YFP fluorescence quenching using Varenicline, 3 nM var: ligand Varenicline 3 nM; for YFP fluorescence quenching using Varenicline, 30 nM var: ligand Varenicline 30 nM; for YFP fluorescence quenching using Varenicline, 300 nM var: ligand Varenicline 300 nM; for YFP fluorescence quenching using Varenicline, 500 nM var: ligand Varenicline 500 nM; for YFP fluorescence quenching using Varenicline, 1 uM var: ligand Varenicline 1 uM
In short: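 Percent quench compares mean YFP signal over the final 10 s with the 15 s baseline before ligand, added in iodide-containing extracellular solution (pH 7.2). Cells were LX293T carrying a YFP anion reporter, transiently transfected with the channel construct; plates were preincubated 30 min at 37 °C.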

B1: CODA1138: engineered receptor: W77F, R101F, L131D in SEQ ID NO: 33 (protein)
chain: MRCSPGGVWLALAASLLHVSLQGEFQRKLYKELVKNYNPLERPVANDSQPLTVYFSLSLLQIMDVDEKNQVLTTNIFLQMSWTDHYLQWNVSEYPGVKTVFFPDGQIWKPDILLYNSADERFDATFHTNVDVNSSGHCQYLPPGIFKSSCPMDLKNFPMDVQTCKLKFGSWSYGGWSLDLQMQEADISGYIPNGEWDLVGIPGKRSERFYECCKEPYPDVTFTVTMRRRMGYYLIQMYIPSLLIVILSWISFWINMDAAPARVGLGITTVLTMTTQSSGSRASLPKVSYVKAIDIWMAVCLLFVFSALLEYAAVNFVSRQHKELLRFRRKRRHHKSPMLNLFQEDEAGEGRFNFSAYGMGPACLQAKDGISVKGANNSNTTNPPPAPSKSPEEMRKLFIQRAKKIDKISRIGFPMAFLIFNMFYWIIYKIVRREDVHNQ
modifications: synthetic sequence of chimeric LGIC
1 nM CNL001, first column so headed
  YFP fluorescence quenching using CNL001 (percent quench): −6.175%
1 nM CNL001, second column so headed
  YFP fluorescence quenching using CNL001 (percent quench): 5.89%
1 nM CNL002
  YFP fluorescence quenching (percent quench): −2.209%
10 nM CNL001, first column so headed
  YFP fluorescence quenching using CNL001 (percent quench): −2.032%
10 nM CNL001, second column so headed
  YFP fluorescence quenching using CNL001 (percent quench): 7.601%
10 nM CNL002
  YFP fluorescence quenching (percent quench): 43.044%
50 nM CNL001, first column so headed
  YFP fluorescence quenching using CNL001 (percent quench): 9.263%
50 nM CNL001, second column so headed
  YFP fluorescence quenching using CNL001 (percent quench): 4.423%
50 nM CNL002
  YFP fluorescence quenching (percent quench): 73.418%
50 nM abt (ABT-126)
  YFP fluorescence quenching using ABT-126 (percent quench): −11.71%
100 nM CNL001, first column so headed
  YFP fluorescence quenching using CNL001 (percent quench): 24%
100 nM CNL001, second column so headed
  YFP fluorescence quenching using CNL001 (percent quench): 30.448%
100 nM CNL002
  YFP fluorescence quenching (percent quench): 81.66%
100 nM abt (ABT-126)
  YFP fluorescence quenching using ABT-126 (percent quench): −5.13%
300 nM abt (ABT-126)
  YFP fluorescence quenching using ABT-126 (percent quench): 15.09%
1 uM CNL001, first column so headed
  YFP fluorescence quenching using CNL001 (percent quench): 73.823%
1 uM CNL001, second column so headed
  YFP fluorescence quenching using CNL001 (percent quench): 73.271%
1 uM CNL002
  YFP fluorescence quenching (percent quench): 81.69%
1 uM abt (ABT-126)
  YFP fluorescence quenching using ABT-126 (percent quench): 56.63%
10 uM abt (ABT-126)
  YFP fluorescence quenching using ABT-126 (percent quench): 75.93%
10 uM ach (acetylcholine)
  YFP fluorescence quenching (percent quench): −12.92%
30 uM ach (acetylcholine)
  YFP fluorescence quenching (percent quench): −15.36%
100 uM ach (acetylcholine)
  YFP fluorescence quenching (percent quench): −19.35%
300 uM ach (acetylcholine)
  YFP fluorescence quenching (percent quench): −14.79%
1 mM ach (acetylcholine)
  YFP fluorescence quenching (percent quench): 37.5%
3 mM ach (acetylcholine)
  YFP fluorescence quenching (percent quench): 61.73%
First column
  YFP fluorescence quenching using Varenicline, 3 nM var: 3.893
  YFP fluorescence quenching using Varenicline, 30 nM var: 0.972
  YFP fluorescence quenching using Varenicline, 300 nM var: 2.282
  YFP fluorescence quenching using Varenicline, 500 nM var: 3.637
  YFP fluorescence quenching using Varenicline, 1 uM var: −1.84
Second column
  YFP fluorescence quenching using Varenicline, 3 nM var: 1.107
  YFP fluorescence quenching using Varenicline, 30 nM var: 0.872
  YFP fluorescence quenching using Varenicline, 300 nM var: −0.288
  YFP fluorescence quenching using Varenicline, 500 nM var: −1.804
  YFP fluorescence quenching using Varenicline, 1 uM var: 6.36
